{"source": "patent US6500431B1", "about": "“Inhibitors of angiogenesis and tumor growth” (University of Southern California, priority 1998, dated 2002)", "key": {"endothelial cells": {"tested_on": "endothelial cells", "test": "Endothelial cell migration assay, fibronectin-coated transwell", "format": "cell-based", "details": "chemotaxis induced by VEGF or bFGF", "method": "The assays were done in double chamber wells separated by […] membrane. Chemotaxis was induced by bFGF (25 ng/mL) in the lower chamber. Endothelial cells or KS cells (5×10^4/mL) were placed in the upper chamber in the presence and absence of test polypeptides. Taxol at 10 ng/mL was used as a known inhibitor of migration. Cell migration across the membrane was quantitated after an overnight incubation.\nAngiogenesis is mediated by complex biochemical processes including degradation of the basement membrane under existing blood vessel endothelial cells, followed by proliferation and migration of endothelial cells, followed by formation of capillary loops, and recruitment of vascular smooth muscle cells to encase the newly formed vessels and provide stability. […]\nBriefly, wells were coated with fibronectin (25 μg/mL) overnight, and endothelial cells or KS cells were plated in the upper chamber with 100 μL of DMEM/0.4% FCS. […] The plates were incubated for 5 hr at 37° C. and the cells crossing the fibronectin-coated membrane were counted after wiping the cells off the membrane in the upper chamber with a cotton swab.\nThe cells that traversed the membrane were fixed with Diff-Quik stain according to the manufacturer's instruction (Dade Diagnostics Inc., Aguada, PR). The cells were counted under a microscope at 320× in four randomly selected fields. […]"}, "[1]": {"tested_on": "endothelial cells (HUVEC)", "test": "Growth inhibition of endothelial cells", "format": "cell-based", "method": "FIG. 1D: Activity of n-terminus decapeptide (DVCQDCIQMV; SEQ ID NO 21).\nFIG. 1E: Activity of N-terminus pentapeptide (DVCQC; SEQ ID NO: 28).\nBy SDS-PAGE, the bacterial product was smaller than the eukaryotic protein. Because prokaryotically expressed proteins are not glycosylated, the difference in molecular weights probably represents the presence of carbohydrate in the eukaryotic protein. Recombinant proteins were then tested in KS, endothelial and control cell lines. Activity was found only in KS cell lines and endothelial cells."}, "[2]": {"tested_on": "chicken allantoic membrane (CAM)", "test": "Chicken allantoic membrane (CAM) angiogenesis assay", "format": "in vivo", "details": "induced by VEGF or bFGF; 48 hours", "method": "In order to test anti-angiogenic activity, chicken allantoic membrane (CAM) assays were performed with recombinant Saposin B. Ten day old fertilized chicken eggs were prepared for assay by creating a window in the egg shell, and placing filter paper discs saturated with VEGF or bFGF as positive controls, test compounds, or carrier buffer (negative controls) on the allantoic membrane. The membranes were harvested after 48 hours and analyzed using an Olympus stereomicroscope. The number of branching blood vessels that infiltrated under the discs were counted and photographed. Eight CAMs were studied for test group, and the experiments were repeated at least twice."}, "[3]": {"tested_on": "CD34+ cord blood derived cells", "test": "Viability of CD34+ cord blood derived cells", "format": "cell-based, human", "excerpt": "However in the presence of Saposin B, CD34^+/Flk-1^+ progenitor […] was inhibited.\nSaposin B was found not to be toxic to most CD34^+ cord blood derived cells, since the difference in viability of Saposin B treated CD34^+ cells was only around 20% when compared to control cells. Thus Saposin B not only targets fully differentiated and activated endothelial cells, but also a circulating progenitor, previously shown to target angiogenic sites."}, "KS Y-1 tumor": {"tested_on": "KS Y-1 tumor", "test": "Established KS tumors in mice", "format": "in vivo", "method": "FIG. 5: Effect of two daily doses of Saposin B on growth of an established KS Y-1 tumor. The arrow marks initiation of daily subcutaneous dosing.\nIn further experiments, KS tumors were allowed to grow for five days before treatment with Saposin B (1 and 5 mg/kg daily at a distal site from the timor). In control mice, tumors grew to a weight of 555±mg. […] Tumors excised at the conclusion of the experiments were also examined for apoptosis, blood vesel density, andmitotic index. […] Thus, contrary to the results in vitro, Saposin B has an inhibitory effect against non-KS tumors."}}, "note": "Entries after “also recorded” stand apart in the source; their conditions may differ."}
{"molecule": "Saposin B: polypeptide fragment of Prosaposin (positions 190 to 269), SEQ ID NO:2; recombinantly expressed (protein) GDVCQDCIQMVTDIQTAVRTNSTFVQALVEHVKEECDRLGPGMADICKNYISQYSEIAIQMMMHMQPKEICALVGFCDEVK", "values": [{"measurement": "inhibition of endothelial cell migration", "setting": "endothelial cells", "result": "compete inhibition of cell migration; also recorded: inhibited endothelial cell migration"}, {"measurement": "growth inhibition of endothelial cells", "setting": "[1]; FIG. 1, 1D, 1E", "result": "dose dependent growth inhibition"}, {"measurement": "growth inhibition of proliferating versus quiescent endothelial cells (HUVEC)", "setting": "[1]; FIG. 1B", "result": "Only proliferating and not quiescent endothelial cells (HUVEC) show dose dependent growth inhibition"}, {"measurement": "angiogenesis (number of blood vessel branches) in CAMs", "setting": "[2]", "result": "effectively blocked angiogenesis; also recorded: inhibited by Saposin B in a dose-dependent fashion"}, {"measurement": "difference in viability of treated CD34+ cells compared to control cells", "setting": "[3]", "result": "around 20%"}, {"measurement": "apoptosis in excised tumors", "setting": "KS Y-1 tumor; 1 and 5 mg/kg daily", "result": "increase in apoptosis"}, {"measurement": "blood vessel density in excised tumors", "setting": "KS Y-1 tumor; 1 and 5 mg/kg daily", "result": "decrease in blood vessel density"}, {"measurement": "weights of excised tumors relative to controls", "setting": "KS Y-1 tumor; treatment from day five, 1 and 5 mg/kg daily at a distal site", "result": "approximately 23%"}]}
